The source of these data is article PMC11569188 (2024).

The experiment deals with Grb2 SH2 domain (BAP-tagged) (UniProt P62993 60-152, biotin on the BAP tag (in vivo biotinylation)). In words: FP.
Chain of Grb2 SH2 domain (BAP-tagged) (P62993 60-152): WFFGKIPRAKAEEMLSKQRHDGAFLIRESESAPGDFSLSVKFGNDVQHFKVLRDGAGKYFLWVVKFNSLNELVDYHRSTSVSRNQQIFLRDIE

B1: Affimer Grb2 A4 (designed binder)
chain: MASNSLEIEELARFAVDEHNKKENALLEFVRVVKAKEQHVLWENAGPTMYYLTLEAKDGGKKKLYEAKVWVKHTRYEYFVYNFKELQEFKPVGDAAAAHHHHHHHH
Consider B1, for which the IC50 is 770 nM.

A word on the IC50: it is the concentration at which inhibition is half-maximal. Read a high IC50 as a need for much substance.
